Reference: patent publication US20260151494A1 (ARO BIOTHERAPEUTICS, published 2026)
Substitutions are numbered along the chain they refer to.

B1: CD71-binding FN3 domain SEQ ID NO 381 (designed binder)
chain: MLPAPKNLVVSRVTEDSARLSWTAPDAAFDSFEIAYQELSLWGEAIVLTVPGSERSYDLTGLKPGTEYYVHIGGVKGGIWSRPLSAIFTT
B2: CD71-binding FN3 domain SEQ ID NO 348 (designed binder)
chain: B1 chain with A35S, Q37F, L39N, S40T, L41W, W42Y, Y69V, H71W, I79L, R82K
B3: CD71-binding FN3 domain SEQ ID NO 388 (designed binder)
chain: B1 chain with Q37F, L39Y, S40C, W42N, Y69W, H71Q, I79T, R82W
B4: CD71-binding FN3 domain SEQ ID NO 429 (designed binder)
chain: B1 chain with A35G, Q37F, L39R, L41F, W42Y, V47I, T49F, Y69A, H71W, I79V
B5: CD71-binding FN3 domain SEQ ID NO 358 (designed binder)
chain: B1 chain with A35G, Q37W, L39N, S40A, L41Y, W42K, Y69V, H71F, I79V, R82V
B6: CD71-binding FN3 domain SEQ ID NO 440 (designed binder)
chain: B1 chain with A35V, Q37A, L39W, S40T, L41Q, W42H, I79K, R82P, S85Y
B7: CD71-binding FN3 domain SEQ ID NO 407 (designed binder)
chain: B1 chain with Q37F, L39T, S40C, L41R, W42T, Y69R, H71W, I79V
B8: CD71-binding FN3 domain SEQ ID NO 352 (designed binder)
chain: B1 chain with R82S
B9: CD71-binding FN3 domain SEQ ID NO 390 (designed binder)
chain: MLPAPKNLVVSRVTEDSARLSWTAPDAAFDSFEIGYFERAWFGEAIVLTVPGSERSYDLTGLKPGTEYAVFIGGVKGGSYSYPLSAIFTT
B10: CD71-binding FN3 domain SEQ ID NO 418 (designed binder)
chain: B1 chain with Q37F, L39N, L41Y, W42Y, Y69A, H71Y, I79S, R82N, F88S
B11: CD71-binding FN3 domain SEQ ID NO 419 (designed binder)
chain: MLPAPKNLVVSRVTEDSARLSWTAPDAAFDSFFIGYLEPQPPGEAIALLVPGSERSYDLTGLKPGTEYNVTIQGVKGGFPSSPLNAYFTT
B12: CD71-binding FN3 domain SEQ ID NO 443 (designed binder)
chain: B11 chain with A47E, L49Y, S82D, N85H, Y87A
B13: CD71-binding FN3 domain SEQ ID NO 438 (designed binder)
chain: B11 chain with A47D, L49W, S82Y, N85L, Y87I
B14: CD71-binding FN3 domain SEQ ID NO 445 (designed binder)
chain: B11 chain with A47H, L49F, S82D, N85V, Y87S
B15: CD71-binding FN3 domain SEQ ID NO 430 (designed binder)
chain: B11 chain with A47D, L49W, S82Y, N85S, Y87S
B16: CD71-binding FN3 domain SEQ ID NO 441 (designed binder)
chain: B11 chain with A47L, L49W, S82D, N85I, Y87N
B17: CD71-binding FN3 domain SEQ ID NO 422 (designed binder)
chain: B11 chain with A47S, S82H, N85D, Y87S
B18: CD71-binding FN3 domain SEQ ID NO 436 (designed binder)
chain: B11 chain with A47H, S82E, N85W, Y87K
B19: CD71-binding FN3 domain SEQ ID NO 435 (designed binder)
chain: B11 chain with L49W, S82H, N85A, Y87V
B20: CD71-binding FN3 domain SEQ ID NO 437 (designed binder)
chain: B11 chain with A47S, L49W, S82T, N85S, Y87K
B21: CD71-binding FN3 domain SEQ ID NO 433 (designed binder)
chain: B11 chain with L49Y, S82L, N85E, Y87N
B22: CD71-binding FN3 domain SEQ ID NO 428 (designed binder)
chain: B11 chain with A47S, L49Y, S82N, N85I, Y87Q
B23: CD71-binding FN3 domain SEQ ID NO 432 (designed binder)
chain: B11 chain with L49Y, S82G, N85E
B24: CD71-binding FN3 domain SEQ ID NO 431 (designed binder)
chain: B11 chain with A47V, L49F, S82N, N85S, Y87I, F88S
B25: CD71-binding FN3 domain SEQ ID NO 434 (designed binder)
chain: B11 chain with A47G, L49Q, S82D, N85Q, Y87I
B26: CD71-binding FN3 domain SEQ ID NO 424 (designed binder)
chain: B11 chain with A47H, L49I, S82D, N85D, Y87S
B27: CD71-binding FN3 domain SEQ ID NO 439 (designed binder)
chain: B11 chain with A47H, L49F, S82V
B28: CD71-binding FN3 domain SEQ ID NO 420 (designed binder)
chain: B11 chain with A47H, L49Q, Q73H, F79I, S82M, N85S, Y87K
B29: CD71-binding FN3 domain SEQ ID NO 425 (designed binder)
chain: B11 chain with A47G, S82N, N85S, Y87I
B30: CD71-binding FN3 domain SEQ ID NO 421 (designed binder)
chain: B11 chain with A47D, L49W, S82M, N85E, Y87V
notes: The cell prints '42'
B31: CD71-binding FN3 domain SEQ ID NO 426 (designed binder)
chain: B11 chain with A47F, S82M, N85S, Y87I
B32: CD71-binding FN3 domain SEQ ID NO 427 (designed binder)
chain: B11 chain with A47H, L49R, S82D, N85I, Y87V
B33: CD71-binding FN3 domain SEQ ID NO 423 (designed binder)
chain: B11 chain with L49Y, S82E, N85V, Y87T
B34: CD71-binding FN3 domain SEQ ID NO 370 (designed binder)
chain: MLPAPKNLVVSRVTEDSARLSWTAPDAAFDSFYIAYAEPRPDGEAIVLVVPGSERSYDLTGLKPGTEYSVLIHGVKGGLLSSPLSAHFTT
B35: CD71-binding FN3 domain SEQ ID NO 386 (designed binder)
chain: B34 chain with V47T, V49L, H87I
B36: CD71-binding FN3 domain SEQ ID NO 403 (designed binder)
chain: B34 chain with V49D, S85V, H87D
B37: CD71-binding FN3 domain SEQ ID NO 359 (designed binder)
chain: B34 chain with Y33L, A35P, P39T, R40S, D42S, V49T, L79D, L80Y, H87I
B38: CD71-binding FN3 domain SEQ ID NO 374 (designed binder)
chain: B34 chain with V47Q, V49S, S85H, H87S
B39: CD71-binding FN3 domain SEQ ID NO 367 (designed binder)
chain: B34 chain with V47L, S85V, H87F

The binders below were run against T1, human apical domain of CD71 (human, UniProt P02786 189-383, limits assumed) (assay: primary ELISA; further: test concentration or dose not given here).
T1 construct: domain: apical domain
T1 sequence (P02786 189-383 limits assumed): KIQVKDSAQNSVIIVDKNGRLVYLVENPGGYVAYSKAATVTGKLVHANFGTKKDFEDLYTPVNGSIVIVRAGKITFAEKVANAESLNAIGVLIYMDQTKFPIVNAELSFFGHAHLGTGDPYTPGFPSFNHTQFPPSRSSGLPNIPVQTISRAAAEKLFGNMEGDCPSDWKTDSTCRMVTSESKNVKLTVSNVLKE

| Binder | RLU [RLU] |
| --- | --- |
| B1 | 5.14e+06 |
| B2 | 4.8e+06 |
| B3 | 4.29e+06 |
| B4 | 4.39e+06 |
| B5 | 5.02e+06 |
| B6 | 4.88e+06 |
| B7 | 4.64e+06 |
| B8 | 5.42e+06 |
| B9 | 4.78e+06 |
| B10 | 5.05e+06 |
| B11 | 4.59e+06 |
| B12 | 4.4e+06 |
| B13 | 5.59e+06 |
| B14 | 6.73e+06 |
| B15 | 3.58e+06 |
| B16 | 5.74e+06 |
| B17 | 5.88e+06 |
| B18 | 5.66e+06 |
| B19 | 5.5e+06 |
| B20 | 2.82e+06 |

| Binder | RLU [RLU] |
| --- | --- |
| B21 | 3.57e+06 |
| B22 | 5.9e+06 |
| B23 | 3.11e+06 |
| B24 | 4.35e+06 |
| B25 | 4.03e+06 |
| B26 | 5.16e+06 |
| B27 | 6.56e+06 |
| B28 | 3.93e+06 |
| B29 | 6.23e+06 |
| B30 | 4.2e+06 |
| B31 | 5.95e+06 |
| B32 | 3.52e+06 |
| B33 | 6.56e+06 |
| B34 | 4.83e+06 |
| B35 | 3.96e+06 |
| B36 | 5.34e+06 |
| B37 | 6.97e+06 |
| B38 | 3.64e+06 |
| B39 | 6.51e+06 |

Each binder was assayed against T2, human CD71 extracellular domain (human, UniProt P02786 89-760) (assay: primary ELISA; further: test concentration or dose not given here).
T2 construct: also called hCD71; CD71-ECD
T2 sequence (P02786 89-760): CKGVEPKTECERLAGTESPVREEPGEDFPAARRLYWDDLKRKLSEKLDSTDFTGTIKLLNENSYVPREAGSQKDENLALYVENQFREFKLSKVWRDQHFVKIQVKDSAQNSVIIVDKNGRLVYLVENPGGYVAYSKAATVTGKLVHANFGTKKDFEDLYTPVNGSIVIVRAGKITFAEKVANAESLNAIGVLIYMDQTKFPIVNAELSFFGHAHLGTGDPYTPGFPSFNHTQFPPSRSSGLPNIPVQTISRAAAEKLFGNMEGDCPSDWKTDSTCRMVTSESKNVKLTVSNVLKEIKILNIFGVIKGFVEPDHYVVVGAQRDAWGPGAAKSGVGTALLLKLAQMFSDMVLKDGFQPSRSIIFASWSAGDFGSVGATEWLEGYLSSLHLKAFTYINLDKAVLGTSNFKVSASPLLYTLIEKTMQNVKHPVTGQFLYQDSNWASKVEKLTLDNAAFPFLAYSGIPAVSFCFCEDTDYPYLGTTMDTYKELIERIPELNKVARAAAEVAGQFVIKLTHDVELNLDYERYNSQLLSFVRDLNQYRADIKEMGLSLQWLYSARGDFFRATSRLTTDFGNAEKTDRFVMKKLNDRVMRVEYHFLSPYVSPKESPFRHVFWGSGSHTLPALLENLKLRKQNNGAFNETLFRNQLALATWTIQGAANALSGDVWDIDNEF

| Binder | RLU [RLU] |
| --- | --- |
| B1 | 2.48e+06 |
| B2 | 1.83e+06 |
| B3 | 1.09e+06 |
| B4 | 1.95e+06 |
| B5 | 2.34e+06 |
| B6 | 2.26e+06 |
| B7 | 1.73e+06 |
| B8 | 2.38e+06 |
| B9 | 1.93e+06 |
| B10 | 1.95e+06 |
| B11 | 3.6e+06 |
| B12 | 5.38e+06 |
| B13 | 4.96e+06 |
| B14 | 6.65e+06 |
| B15 | 3.64e+06 |
| B16 | 5.92e+06 |
| B17 | 2.97e+06 |
| B18 | 4.46e+06 |
| B19 | 3.62e+06 |
| B20 | 3.22e+06 |

| Binder | RLU [RLU] |
| --- | --- |
| B21 | 3.26e+06 |
| B22 | 6.19e+06 |
| B23 | 3.73e+06 |
| B24 | 4.4e+06 |
| B25 | 3.13e+06 |
| B26 | 3.9e+06 |
| B27 | 5.47e+06 |
| B28 | 3.2e+06 |
| B29 | 4.44e+06 |
| B30 | 1.76e+06 |
| B31 | 4.43e+06 |
| B32 | 2.25e+06 |
| B33 | 6.63e+06 |
| B34 | 2.13e+06 |
| B35 | 1.28e+06 |
| B36 | 3.64e+06 |
| B37 | 3.57e+06 |
| B38 | 1e+06 |
| B39 | 4.62e+06 |

The binders below were run against T1, human apical domain of CD71 (assay: primary ELISA; signal over HSA control). On RLU: test concentration or dose not given here.

| Binder | Apical domain:HSA [ratio] |
| --- | --- |
| B1 | 227 |
| B2 | 302 |
| B3 | 135 |
| B4 | 280 |
| B5 | 83 |
| B6 | 192 |
| B7 | 61 |
| B8 | 144 |
| B9 | 131 |
| B10 | 77 |
| B11 | 269 |
| B12 | 116 |
| B13 | 161 |
| B14 | 77 |
| B15 | 124 |
| B16 | 31 |
| B17 | 340 |
| B18 | 288 |
| B19 | 319 |
| B20 | 147 |

| Binder | Apical domain:HSA [ratio] |
| --- | --- |
| B21 | 184 |
| B22 | 186 |
| B23 | 79 |
| B24 | 88 |
| B25 | 403 |
| B26 | 155 |
| B27 | 258 |
| B28 | 495 |
| B29 | 347 |
| B30 | 398 |
| B31 | 176 |
| B32 | 612 |
| B33 | 57 |
| B34 | 480 |
| B35 | 400 |
| B36 | 342 |
| B37 | 233 |
| B38 | 277 |
| B39 | 66 |

What follows are binders tested against T2, human CD71 extracellular domain (assay: primary ELISA; signal over HSA control). On RLU: test concentration or dose not given here.

| Binder | hCD71:HSA [ratio] |
| --- | --- |
| B1 | 110 |
| B2 | 115 |
| B3 | 34 |
| B4 | 124 |
| B5 | 39 |
| B6 | 89 |
| B7 | 23 |
| B8 | 63 |
| B9 | 53 |
| B10 | 30 |
| B11 | 211 |
| B12 | 142 |
| B13 | 143 |
| B14 | 76 |
| B15 | 126 |
| B16 | 32 |
| B17 | 171 |
| B18 | 227 |
| B19 | 210 |
| B20 | 168 |

| Binder | hCD71:HSA [ratio] |
| --- | --- |
| B21 | 169 |
| B22 | 195 |
| B23 | 94 |
| B24 | 89 |
| B25 | 313 |
| B26 | 117 |
| B27 | 215 |
| B28 | 402 |
| B29 | 247 |
| B30 | 167 |
| B31 | 13 |
| B32 | 392 |
| B33 | 58 |
| B34 | 212 |
| B35 | 130 |
| B36 | 233 |
| B37 | 120 |
| B38 | 76 |
| B39 | 47 |
